Laboratory results published in publication PMC12680531.
Where a chain is given by its changes, count along the chain named. Names may count otherwise.

T1: cell surface TM4SF4 of human cancer cell lines, P48230
T1 chain: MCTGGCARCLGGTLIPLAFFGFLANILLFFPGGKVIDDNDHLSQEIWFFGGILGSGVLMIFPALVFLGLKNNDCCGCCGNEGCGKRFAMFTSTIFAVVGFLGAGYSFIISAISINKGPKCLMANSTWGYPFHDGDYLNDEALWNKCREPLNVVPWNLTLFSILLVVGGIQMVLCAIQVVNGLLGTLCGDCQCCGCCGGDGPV

B1: humanized 2B7 antibody Hz2B7-1.1 L:N31V (protein)
chain 1: EITLKESGPTLVKPTQTLTLTCTFSGFSLSTYGIGVSWIRQPPGKALEWLAHIWWNDNKYYNTALKSRLTITKDTSKNQVVLTMTNMDPVDTATYYCARKEGSSAPFAYWGQGTLVTVSS
chain 2: DIVMTQSPDSLAVSLGERATINCKSSQSLLVSSNQKNYLAWYQQKPGQPPKLLIYFASTRESGVPDRFSGSGSGTDFTLTISLMQAEDVAVYYCQQHYRTPPTFGQGTKVEIK
B2: humanized 2B7 antibody Hz2B7-1.1 L:N31F (protein)
chain 1: B1 chain 1
chain 2: B1 chain 2 with V31F

Biological target: T1, cell surface TM4SF4 of human cancer …
Assay: flow cytometry on cells
Conditions: chain shown with the change, n = 3, parent: est. 100, read off a plot

Binder | percent of parent (A549 cells) [%] | percent of parent (Calu-3 cells) [%]
B1 | 97 | 87
B2 | 130 | 100
